IntAct's records for PubMed 20498073

Molecular target: expa_drome ex (UniProt Q07436)
Chain of UniProt Q07436 (Q07436 whole entry): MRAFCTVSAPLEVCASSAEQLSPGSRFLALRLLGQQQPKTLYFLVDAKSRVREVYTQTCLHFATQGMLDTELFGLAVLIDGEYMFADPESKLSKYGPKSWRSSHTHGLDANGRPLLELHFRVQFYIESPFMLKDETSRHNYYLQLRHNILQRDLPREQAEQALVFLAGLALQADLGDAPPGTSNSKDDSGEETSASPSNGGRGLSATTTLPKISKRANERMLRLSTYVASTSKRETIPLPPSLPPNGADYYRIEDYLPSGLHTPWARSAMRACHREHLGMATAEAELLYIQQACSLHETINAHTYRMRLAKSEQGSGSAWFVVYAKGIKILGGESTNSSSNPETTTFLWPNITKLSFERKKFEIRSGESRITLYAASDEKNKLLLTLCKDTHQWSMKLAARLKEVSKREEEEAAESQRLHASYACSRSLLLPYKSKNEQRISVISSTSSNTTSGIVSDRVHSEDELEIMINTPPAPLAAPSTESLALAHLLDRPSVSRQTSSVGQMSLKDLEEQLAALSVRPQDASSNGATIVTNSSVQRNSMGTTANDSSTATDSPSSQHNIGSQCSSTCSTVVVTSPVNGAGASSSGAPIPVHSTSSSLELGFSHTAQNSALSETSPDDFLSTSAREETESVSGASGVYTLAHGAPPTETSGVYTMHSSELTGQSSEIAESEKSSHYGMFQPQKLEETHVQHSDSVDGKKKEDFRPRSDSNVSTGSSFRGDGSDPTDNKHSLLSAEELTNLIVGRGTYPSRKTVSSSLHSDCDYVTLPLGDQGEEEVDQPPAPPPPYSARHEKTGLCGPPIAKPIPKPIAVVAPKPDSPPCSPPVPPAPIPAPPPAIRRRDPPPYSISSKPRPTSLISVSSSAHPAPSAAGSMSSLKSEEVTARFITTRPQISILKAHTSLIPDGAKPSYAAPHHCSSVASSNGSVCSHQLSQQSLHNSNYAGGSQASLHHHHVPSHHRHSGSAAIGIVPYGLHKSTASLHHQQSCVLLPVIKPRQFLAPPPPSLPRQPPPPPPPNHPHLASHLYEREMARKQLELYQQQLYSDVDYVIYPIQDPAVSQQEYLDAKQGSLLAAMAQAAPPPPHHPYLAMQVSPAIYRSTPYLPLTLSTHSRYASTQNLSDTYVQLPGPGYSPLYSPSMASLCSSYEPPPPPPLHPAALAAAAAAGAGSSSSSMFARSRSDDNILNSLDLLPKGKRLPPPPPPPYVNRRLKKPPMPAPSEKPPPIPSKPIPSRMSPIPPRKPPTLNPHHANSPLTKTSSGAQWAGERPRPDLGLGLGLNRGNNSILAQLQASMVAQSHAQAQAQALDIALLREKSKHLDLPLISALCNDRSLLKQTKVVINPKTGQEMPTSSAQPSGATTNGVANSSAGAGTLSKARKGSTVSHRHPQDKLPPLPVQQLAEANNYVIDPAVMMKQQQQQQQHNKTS

Question: For “Protein crumbs (Drosophila melanogaster (Fruit fly)), P10040 Y2119A;P2121A;E2125A”, which “effect of a mutation on the interaction” value is on record?
Answer: disrupting interaction
